This test concerns the target tripartite motif containing 28 (TRIM28) (human (endogenous in HeLa)) (UniProt Q13263).

Chain of tripartite motif containing 28 (TRIM28) (human (endogenous in HeLa)) (Q13263 whole entry): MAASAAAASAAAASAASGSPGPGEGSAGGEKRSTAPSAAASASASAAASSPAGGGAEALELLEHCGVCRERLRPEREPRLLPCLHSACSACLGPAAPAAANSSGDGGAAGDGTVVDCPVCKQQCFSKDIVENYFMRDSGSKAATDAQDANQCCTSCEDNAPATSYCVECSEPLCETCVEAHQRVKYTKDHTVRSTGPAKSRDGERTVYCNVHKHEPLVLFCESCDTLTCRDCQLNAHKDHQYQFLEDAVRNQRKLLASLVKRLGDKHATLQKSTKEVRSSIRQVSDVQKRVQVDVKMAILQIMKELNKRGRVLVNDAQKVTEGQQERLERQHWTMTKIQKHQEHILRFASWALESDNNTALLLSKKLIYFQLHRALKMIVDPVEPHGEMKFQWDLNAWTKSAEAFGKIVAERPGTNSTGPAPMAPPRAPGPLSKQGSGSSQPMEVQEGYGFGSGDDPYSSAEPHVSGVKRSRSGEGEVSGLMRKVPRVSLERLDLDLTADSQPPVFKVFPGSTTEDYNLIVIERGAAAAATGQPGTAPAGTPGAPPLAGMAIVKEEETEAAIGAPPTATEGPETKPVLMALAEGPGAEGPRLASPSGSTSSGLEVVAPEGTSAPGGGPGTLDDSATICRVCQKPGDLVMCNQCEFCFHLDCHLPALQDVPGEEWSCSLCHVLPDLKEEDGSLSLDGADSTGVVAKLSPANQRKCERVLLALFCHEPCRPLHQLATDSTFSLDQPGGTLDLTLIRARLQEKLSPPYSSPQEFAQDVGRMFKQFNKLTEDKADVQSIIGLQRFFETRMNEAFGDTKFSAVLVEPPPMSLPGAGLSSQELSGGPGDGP

Substance “GST fusion of wild-type PRDM9 aKRAB-A with ZNF10-B (domain or fragment)” returned a transcriptional repression factor over Gal4-DBD alone, dual luciferase reporter assay in HeLa cells (KRAB domain as Gal4-DBD fusion) of 0.9 fold.
